Laboratory results as given in the supplement of paper PMC10065799, “High-throughput profiling of sequence recognition by tyrosine kinases and SH2 domains using bacterial peptide display” (eLife, 2023).

Test system: AncSZ
Experiment: phosphorylation enrichment, bacterial display (enrichment ratio); higher = better substrate or ligand; peptides without Tyr show the background
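Further: 11-residue human phosphosite peptides and single-mutation variants displayed on the E. coli surface, counted by deep sequencing, each peptide's frequency after selection divided by its frequency in the unselected input library; frequency after pTyr selection over input frequency; kinase dosed for 20-30% of maximal phosphorylation in three min.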

Sequence	phosphorylation enrichment
LITTPYIGFLG [KCNQ1_Y267_L266P]	0.834
RIPFRYPKEFQ [IDS_Y234_H229R]	0.946
LEIETDRRLLD [KRT12_Y429_Y429D]	2.31
MLEVSYVDRNS [F10_Y384_P383S]	0.651
GTHCHYKAPTV [FZD9_Y569]	0.648
PEVRRYVLPLN [RPE65_Y368]	1.41
SSFPDYLAAVD [GLB1_Y154_D151Y_YF]	1.31
YCRHNYGVVES [HLA-DRB1_Y112]	0.557
LGKLTYPVGFW [NTHL1_Y177_I176T]	2.42
LIDSSYLTRTA [GREB1L_Y1063]	0.748
QQLDKYQELLD [LMNA_Y359_E358K]	1.26
QMWLKYSQSDL [SMC1A_Y714_R711W]	1.67
SNNFIYTTLGV [FAM83B_Y639_K640T_YF]	0.899
FDDIACIRKTL [PIK3CA_Y1021_Y1021C]	0.911
CQASLYPSNHD [LRIG1_Y996_G993A]	1.08
SVVVPYEPTEV [TP53_Y220_P223T]	0.992
IRTIDYRYTVS [IDS_Y497_W502S]	0.789

Sequence	phosphorylation enrichment
HNLDFYKETTN [FGFR3_Y648_K650E_YF]	1.23
GGFNNYGFGSD [HNRNPH3_Y159_N163S_YF]	0.656
MEIHAYLKLLE [LMNA_Y376_R377L]	1.33
NRLTDYYEPLL [BBS10_Y536]	2.64
AGVDRYSLGTS [C5orf42_Y1451_P1446A]	0.59
TRDTDYQMTKR [ADA_Y308_L304R]	0.639
FADIAYNFRQG [PAH_Y166_H170Q_YF]	0.772
RDSQIYAVDFE [MRPS34_Y34_L33I_YF]	1.66
EREFKYGAHNF [OAT_Y50_YF]	0.516
QRKPSYNQLPS [BRCA2_Y71_A75P]	0.886
RNVLVYDKLNV [ROR2_Y624]	0.933
SAVVPYEPPEV [TP53_Y220_V216A]	1.23
LITTLYIGFLD [KCNQ1_Y267_G272D]	2.56
NGSFRYVIISQ [LRP1B_Y1988]	1.12
IPGRYYETGSI [PAX2_Y73_L69P]	0.505
GRERPYGGGGG [FUS_Y526_R521G]	0.498

Molecular target: EPHB1 (UniProt P54762)
Sequence (P54762 whole entry, looked up): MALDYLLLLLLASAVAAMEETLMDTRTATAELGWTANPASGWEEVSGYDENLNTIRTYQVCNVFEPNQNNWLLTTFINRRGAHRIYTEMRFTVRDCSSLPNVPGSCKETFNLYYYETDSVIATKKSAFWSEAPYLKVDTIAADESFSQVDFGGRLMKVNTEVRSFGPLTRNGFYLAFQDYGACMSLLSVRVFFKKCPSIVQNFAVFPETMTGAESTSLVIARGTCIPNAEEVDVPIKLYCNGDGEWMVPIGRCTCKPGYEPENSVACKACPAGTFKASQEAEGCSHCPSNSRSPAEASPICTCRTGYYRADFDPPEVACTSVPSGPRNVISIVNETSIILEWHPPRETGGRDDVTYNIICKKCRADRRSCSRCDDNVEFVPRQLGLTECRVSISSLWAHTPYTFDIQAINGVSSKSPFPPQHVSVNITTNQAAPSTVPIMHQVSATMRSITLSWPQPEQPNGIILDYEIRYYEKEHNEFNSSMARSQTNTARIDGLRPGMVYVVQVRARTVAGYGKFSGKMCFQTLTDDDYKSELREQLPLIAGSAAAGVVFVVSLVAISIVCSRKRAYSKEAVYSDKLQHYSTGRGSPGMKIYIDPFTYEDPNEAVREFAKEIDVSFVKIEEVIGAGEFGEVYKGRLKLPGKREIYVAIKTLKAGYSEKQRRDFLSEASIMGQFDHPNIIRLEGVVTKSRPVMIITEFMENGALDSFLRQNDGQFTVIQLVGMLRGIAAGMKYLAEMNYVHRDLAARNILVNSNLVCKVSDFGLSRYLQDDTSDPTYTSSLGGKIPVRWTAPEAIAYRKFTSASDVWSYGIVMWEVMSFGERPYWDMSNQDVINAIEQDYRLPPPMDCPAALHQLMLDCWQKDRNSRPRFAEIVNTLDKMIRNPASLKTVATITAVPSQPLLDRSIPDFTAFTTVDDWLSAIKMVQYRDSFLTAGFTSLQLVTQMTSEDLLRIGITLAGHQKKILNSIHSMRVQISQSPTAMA
Experiment: as above

Sequence	phosphorylation enrichment
LITTPYIGFLG [KCNQ1_Y267_L266P]	0.449
RIPFRYPKEFQ [IDS_Y234_H229R]	0.571
LEIETDRRLLD [KRT12_Y429_Y429D]	1.13
MLEVSYVDRNS [F10_Y384_P383S]	0.48
GTHCHYKAPTV [FZD9_Y569]	0.421
PEVRRYVLPLN [RPE65_Y368]	1.3
SSFPDYLAAVD [GLB1_Y154_D151Y_YF]	0.604
YCRHNYGVVES [HLA-DRB1_Y112]	1.52
LGKLTYPVGFW [NTHL1_Y177_I176T]	1.12
LIDSSYLTRTA [GREB1L_Y1063]	0.43
QQLDKYQELLD [LMNA_Y359_E358K]	0.889
QMWLKYSQSDL [SMC1A_Y714_R711W]	0.637
SNNFIYTTLGV [FAM83B_Y639_K640T_YF]	2.23
FDDIACIRKTL [PIK3CA_Y1021_Y1021C]	0.603
CQASLYPSNHD [LRIG1_Y996_G993A]	0.721
SVVVPYEPTEV [TP53_Y220_P223T]	0.725
IRTIDYRYTVS [IDS_Y497_W502S]	0.437

Sequence	phosphorylation enrichment
HNLDFYKETTN [FGFR3_Y648_K650E_YF]	0.891
GGFNNYGFGSD [HNRNPH3_Y159_N163S_YF]	0.7
MEIHAYLKLLE [LMNA_Y376_R377L]	0.859
NRLTDYYEPLL [BBS10_Y536]	8.92
AGVDRYSLGTS [C5orf42_Y1451_P1446A]	0.463
TRDTDYQMTKR [ADA_Y308_L304R]	0.383
FADIAYNFRQG [PAH_Y166_H170Q_YF]	0.47
RDSQIYAVDFE [MRPS34_Y34_L33I_YF]	1.08
EREFKYGAHNF [OAT_Y50_YF]	0.392
QRKPSYNQLPS [BRCA2_Y71_A75P]	0.449
RNVLVYDKLNV [ROR2_Y624]	1.97
SAVVPYEPPEV [TP53_Y220_V216A]	0.643
LITTLYIGFLD [KCNQ1_Y267_G272D]	1.25
NGSFRYVIISQ [LRP1B_Y1988]	0.599
IPGRYYETGSI [PAX2_Y73_L69P]	0.451
GRERPYGGGGG [FUS_Y526_R521G]	0.654

Molecular target: EPHB2 (UniProt P29323)
Sequence (P29323 whole entry, looked up): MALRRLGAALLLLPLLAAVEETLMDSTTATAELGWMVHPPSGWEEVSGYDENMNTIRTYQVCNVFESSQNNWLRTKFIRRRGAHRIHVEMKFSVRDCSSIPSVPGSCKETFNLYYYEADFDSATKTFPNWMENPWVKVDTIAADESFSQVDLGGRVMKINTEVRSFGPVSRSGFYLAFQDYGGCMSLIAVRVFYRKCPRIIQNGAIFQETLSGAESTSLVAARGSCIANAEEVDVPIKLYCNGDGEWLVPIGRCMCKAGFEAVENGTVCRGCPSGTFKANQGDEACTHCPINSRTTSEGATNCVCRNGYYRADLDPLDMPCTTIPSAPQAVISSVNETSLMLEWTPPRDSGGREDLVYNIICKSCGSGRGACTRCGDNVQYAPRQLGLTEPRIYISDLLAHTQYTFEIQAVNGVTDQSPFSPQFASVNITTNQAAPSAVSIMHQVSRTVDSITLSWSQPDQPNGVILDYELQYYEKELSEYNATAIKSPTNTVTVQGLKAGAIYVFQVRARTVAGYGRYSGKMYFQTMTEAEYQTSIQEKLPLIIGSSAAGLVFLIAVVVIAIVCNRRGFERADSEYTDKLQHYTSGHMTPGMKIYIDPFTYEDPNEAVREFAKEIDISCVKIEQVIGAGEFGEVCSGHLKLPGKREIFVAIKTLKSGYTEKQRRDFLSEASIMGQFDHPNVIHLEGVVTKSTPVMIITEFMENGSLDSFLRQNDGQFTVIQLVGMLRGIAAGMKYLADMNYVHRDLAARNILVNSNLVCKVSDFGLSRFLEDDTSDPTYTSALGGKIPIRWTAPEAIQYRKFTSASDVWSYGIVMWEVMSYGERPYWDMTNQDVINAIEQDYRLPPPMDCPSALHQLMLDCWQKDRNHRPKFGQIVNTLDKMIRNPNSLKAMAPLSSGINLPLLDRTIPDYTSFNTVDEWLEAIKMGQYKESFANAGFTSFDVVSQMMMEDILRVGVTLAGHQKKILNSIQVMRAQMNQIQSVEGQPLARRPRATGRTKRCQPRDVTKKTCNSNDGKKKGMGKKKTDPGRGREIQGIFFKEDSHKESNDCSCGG
Experiment: as above

Sequence	phosphorylation enrichment
LITTPYIGFLG [KCNQ1_Y267_L266P]	0.5
RIPFRYPKEFQ [IDS_Y234_H229R]	0.646
LEIETDRRLLD [KRT12_Y429_Y429D]	1.03
MLEVSYVDRNS [F10_Y384_P383S]	0.528
GTHCHYKAPTV [FZD9_Y569]	0.39
PEVRRYVLPLN [RPE65_Y368]	0.811
SSFPDYLAAVD [GLB1_Y154_D151Y_YF]	0.603
YCRHNYGVVES [HLA-DRB1_Y112]	2.87
LGKLTYPVGFW [NTHL1_Y177_I176T]	1.65
LIDSSYLTRTA [GREB1L_Y1063]	0.746
QQLDKYQELLD [LMNA_Y359_E358K]	0.806
QMWLKYSQSDL [SMC1A_Y714_R711W]	0.562
SNNFIYTTLGV [FAM83B_Y639_K640T_YF]	1.39
FDDIACIRKTL [PIK3CA_Y1021_Y1021C]	0.629
CQASLYPSNHD [LRIG1_Y996_G993A]	0.624
SVVVPYEPTEV [TP53_Y220_P223T]	0.765
IRTIDYRYTVS [IDS_Y497_W502S]	0.666

Sequence	phosphorylation enrichment
HNLDFYKETTN [FGFR3_Y648_K650E_YF]	0.496
GGFNNYGFGSD [HNRNPH3_Y159_N163S_YF]	0.812
MEIHAYLKLLE [LMNA_Y376_R377L]	0.708
NRLTDYYEPLL [BBS10_Y536]	6.55
AGVDRYSLGTS [C5orf42_Y1451_P1446A]	0.366
TRDTDYQMTKR [ADA_Y308_L304R]	0.446
FADIAYNFRQG [PAH_Y166_H170Q_YF]	0.486
RDSQIYAVDFE [MRPS34_Y34_L33I_YF]	1.17
EREFKYGAHNF [OAT_Y50_YF]	0.375
QRKPSYNQLPS [BRCA2_Y71_A75P]	0.522
RNVLVYDKLNV [ROR2_Y624]	1.97
SAVVPYEPPEV [TP53_Y220_V216A]	0.608
LITTLYIGFLD [KCNQ1_Y267_G272D]	1.16
NGSFRYVIISQ [LRP1B_Y1988]	0.581
IPGRYYETGSI [PAX2_Y73_L69P]	0.595
GRERPYGGGGG [FUS_Y526_R521G]	0.492

Molecular target: FGFR1 (UniProt P11362)
Sequence (P11362 whole entry, looked up): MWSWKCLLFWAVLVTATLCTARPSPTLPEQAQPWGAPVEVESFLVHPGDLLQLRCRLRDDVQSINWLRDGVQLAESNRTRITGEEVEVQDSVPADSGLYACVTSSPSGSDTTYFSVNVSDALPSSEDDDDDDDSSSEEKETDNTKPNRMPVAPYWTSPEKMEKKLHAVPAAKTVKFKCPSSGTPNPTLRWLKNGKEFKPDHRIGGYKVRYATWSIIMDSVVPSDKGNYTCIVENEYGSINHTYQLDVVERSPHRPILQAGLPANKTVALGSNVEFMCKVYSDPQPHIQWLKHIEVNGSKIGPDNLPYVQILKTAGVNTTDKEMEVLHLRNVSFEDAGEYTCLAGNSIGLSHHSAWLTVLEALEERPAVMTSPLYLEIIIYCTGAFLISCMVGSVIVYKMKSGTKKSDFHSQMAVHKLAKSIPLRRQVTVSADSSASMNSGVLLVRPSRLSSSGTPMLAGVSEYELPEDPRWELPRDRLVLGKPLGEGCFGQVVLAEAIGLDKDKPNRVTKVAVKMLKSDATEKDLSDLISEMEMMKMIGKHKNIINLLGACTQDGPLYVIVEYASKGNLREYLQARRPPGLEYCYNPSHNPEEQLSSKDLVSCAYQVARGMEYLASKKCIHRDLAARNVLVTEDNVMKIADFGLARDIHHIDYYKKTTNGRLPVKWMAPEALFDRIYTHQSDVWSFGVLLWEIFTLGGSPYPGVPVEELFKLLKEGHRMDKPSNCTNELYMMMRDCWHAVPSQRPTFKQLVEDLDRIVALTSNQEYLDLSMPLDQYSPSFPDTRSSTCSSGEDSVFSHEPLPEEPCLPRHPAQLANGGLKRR
Experiment: as above

Sequence	phosphorylation enrichment
LITTPYIGFLG [KCNQ1_Y267_L266P]	0.616
RIPFRYPKEFQ [IDS_Y234_H229R]	0.78
LEIETDRRLLD [KRT12_Y429_Y429D]	1.35
MLEVSYVDRNS [F10_Y384_P383S]	0.441
GTHCHYKAPTV [FZD9_Y569]	0.493
PEVRRYVLPLN [RPE65_Y368]	0.606
SSFPDYLAAVD [GLB1_Y154_D151Y_YF]	0.676
YCRHNYGVVES [HLA-DRB1_Y112]	0.568
LGKLTYPVGFW [NTHL1_Y177_I176T]	1.31
LIDSSYLTRTA [GREB1L_Y1063]	0.507
QQLDKYQELLD [LMNA_Y359_E358K]	0.715
QMWLKYSQSDL [SMC1A_Y714_R711W]	0.701
SNNFIYTTLGV [FAM83B_Y639_K640T_YF]	1.22
FDDIACIRKTL [PIK3CA_Y1021_Y1021C]	0.497
CQASLYPSNHD [LRIG1_Y996_G993A]	0.577
SVVVPYEPTEV [TP53_Y220_P223T]	0.481
IRTIDYRYTVS [IDS_Y497_W502S]	0.593

Sequence	phosphorylation enrichment
HNLDFYKETTN [FGFR3_Y648_K650E_YF]	0.645
GGFNNYGFGSD [HNRNPH3_Y159_N163S_YF]	0.48
MEIHAYLKLLE [LMNA_Y376_R377L]	0.517
NRLTDYYEPLL [BBS10_Y536]	11
AGVDRYSLGTS [C5orf42_Y1451_P1446A]	0.398
TRDTDYQMTKR [ADA_Y308_L304R]	0.394
FADIAYNFRQG [PAH_Y166_H170Q_YF]	0.398
RDSQIYAVDFE [MRPS34_Y34_L33I_YF]	0.664
EREFKYGAHNF [OAT_Y50_YF]	0.368
QRKPSYNQLPS [BRCA2_Y71_A75P]	0.557
RNVLVYDKLNV [ROR2_Y624]	0.614
SAVVPYEPPEV [TP53_Y220_V216A]	0.586
LITTLYIGFLD [KCNQ1_Y267_G272D]	0.777
NGSFRYVIISQ [LRP1B_Y1988]	0.603
IPGRYYETGSI [PAX2_Y73_L69P]	0.492
GRERPYGGGGG [FUS_Y526_R521G]	1.02
